# Test results taken from paper PMC6232118.
# Tests used:
# Assay in all cases: EMSA
# Details in all cases: pH 7.9, temperature not given, scale: slope of unbound DNA vs protein
# [1] = tested on: FlhD (E. coli);FlhC (E. coli) (Escherichia coli;Escherichia coli)
# [2] = tested on: FlhD (E. coli);FlhC (S. enterica) (Escherichia coli;Salmonella enterica sv Typhimurium)
# [3] = tested on: FlhD (S. enterica);FlhC (E. coli) (Salmonella enterica sv Typhimurium;Escherichia coli)
# [4] = tested on: FlhD (S. enterica);FlhC (S. enterica) (Salmonella enterica sv Typhimurium;Salmonella enterica sv Typhimurium)
substance,measurement,setting,value
PflgAB promoter PCR product,binding signal,[1],-1570
same,binding signal,[2],-784
same,binding signal,[3],-1120
same,binding signal,[4],-906
